Test results as given in patent publication US20080171059.

Experiments:
[1] = biological target: Aga2p-N9V fusion surface-displayed on yeast, unmodified (G4S)3 linker (construct pCT-N9V, as in strain EBYN9V)
[2] = biological target: New York Esophageal 1 antigen (NY-ESO-1), P78358
Sequence of New York Esophageal 1 antigen (NY-ESO-1), P78358 (P78358 whole entry): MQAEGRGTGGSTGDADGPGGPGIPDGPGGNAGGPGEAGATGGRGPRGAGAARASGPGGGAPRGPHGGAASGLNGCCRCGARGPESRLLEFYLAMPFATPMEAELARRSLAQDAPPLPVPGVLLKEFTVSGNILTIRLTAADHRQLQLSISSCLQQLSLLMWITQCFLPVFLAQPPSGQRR

B1: recombinant human Cathepsin S (protein)
chain: LPDSVDWREKGCVTEVKYQGSCGACWAFSAVGALEAQLKLKTGKLVSLSAQNLVDCSTEKYGNKGCNGGFMTTAFQYIIDNKGIDSDASYPYKAMDQKCQYDSKYRAATCSKYTELPYGREDVLKEAVANKGPVSVGVDARHPSFFLYRSGVYYEPSCTQNVNHGVLVVGYGDLNGKEYWLVKNSWGHNFGEEGYIRMARNKGNHCGIASFPSYPEI
CatS cleavage rank order [1]: 4 rank | cleavage by Cathepsin S [2]: the N-terminus of NY-ESO-1 (MQ|AE . . . ) ... are cleaved rapidly by Cathepsin S (at the positions indicated by the vertical bars)
